For assay [1], the target named is T1, Osm1 (residues 32-501), 6x His-tagged (S. cerevisiae, UniProt P21375 32-501).
T1 construct: Osm1, soluble fumarate reductase of S. cerevisiae, amino acids 32-501, cloned in pET28a (NheI/XhoI); no removal of the tag is described except by trypsin for crystallisation; A31 is an extra residue from the cloning construct; The limits of the pET28a Osm1 used in the pull-down are not repeated in the methods; also called holo-Osm1; WT Osm1; source: also in lysate of BL21(DE3) co-expressing …
T1 sequence (P21375 32-501): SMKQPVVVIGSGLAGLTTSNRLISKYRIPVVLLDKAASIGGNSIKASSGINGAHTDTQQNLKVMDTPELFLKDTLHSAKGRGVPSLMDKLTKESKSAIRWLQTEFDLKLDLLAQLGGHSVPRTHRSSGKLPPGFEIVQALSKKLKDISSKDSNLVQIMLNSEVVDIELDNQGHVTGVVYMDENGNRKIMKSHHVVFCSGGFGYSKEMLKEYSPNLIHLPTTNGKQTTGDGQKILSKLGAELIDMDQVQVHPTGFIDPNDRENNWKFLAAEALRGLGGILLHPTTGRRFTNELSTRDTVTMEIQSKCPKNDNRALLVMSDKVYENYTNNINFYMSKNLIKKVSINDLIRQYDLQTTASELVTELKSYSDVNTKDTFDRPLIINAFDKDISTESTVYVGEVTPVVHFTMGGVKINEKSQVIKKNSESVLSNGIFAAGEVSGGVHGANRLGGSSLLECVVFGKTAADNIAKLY
The assay can be described thus: SPR; Biacore T-200, CM5 chip; MBP-Ero1 immobilised by amine coupling (1500 RU); Osm1 or chimeric Osm1 injected in PBS at 6.25 to 200 µM, 30 µL/min, 25 °C; affinity (steady-state) fitting. The note with it: both partners purified. A general note: Surface plasmon resonance follows binding to a sensor surface in real time, without labels.

Assay [2] has as its target T1, Osm1 (residues 32-501), 6x His-tagged. Kind of assay: ITC; nano-ITC; 2.5 µL injections of 1.6 mM Osm1 into 40 µM Ero1 in PBS. The following applies: both partners purified.

What is called Kd is the free concentration of one partner at which half of the binding sites on the other are occupied at equilibrium, for simple one-to-one binding.

B1: His6-maltose-binding protein (H6-MBP)-fused Ero1 (56-424) (enzyme, yeast, UniProt Q03103 56-424, looked up)
chain: FNELNAINENIRDDLSALLKSDFFKYFRLDLYKQCSFWDANDGLCLNRACSVDVVEDWDTLPEYWQPEILGSFNNDTMKEADDSDDECKFLDQLCQTSKKPVDIEDTINYCDVNDFNGKNAVLIDLTANPERFTGYGGKQAGQIWSTIYQDNCFTIGETGESLAKDAFYRLVSGFHASIGTHLSKEYLNTKTGKWEPNLDLFMARIGNFPDRVTNMYFNYAVVAKALWKIQPYLPEFSFCDLVNKEIKNKMDNVISQLDTKIFNEDLVFANDLSLTLKDEFRSRFKNVTKIMDCVQCDRCRLWGKIQTTGYATALKILFEINDADEFTKQHIVGKLTKYELIALLQTFGRLSESIESVNMFEKMYGKRL
notes: Ero1, ER-resident flavoenzyme of yeast, residues 56-424; FAD cofactor; Uncleaved fusion (83 kDa) immobilised on the CM5 chip; a TEV site lies between H6-MBP and Ero1; The only purified MBP-Ero1 described in the methods is the H6-MBP fusion; also called MBP-Ero1; purified MBP-Ero1; source: E. coli Origami B(DE3), purified (HiTrap Ni2+, amylose)
The molecule B1 returned a Kd in assay [1] of roughly 200 µM.

B2: Ero1 (56-424), H6-MBP cleaved off (enzyme, yeast, UniProt Q03103 56-424, looked up)
chain: FNELNAINENIRDDLSALLKSDFFKYFRLDLYKQCSFWDANDGLCLNRACSVDVVEDWDTLPEYWQPEILGSFNNDTMKEADDSDDECKFLDQLCQTSKKPVDIEDTINYCDVNDFNGKNAVLIDLTANPERFTGYGGKQAGQIWSTIYQDNCFTIGETGESLAKDAFYRLVSGFHASIGTHLSKEYLNTKTGKWEPNLDLFMARIGNFPDRVTNMYFNYAVVAKALWKIQPYLPEFSFCDLVNKEIKNKMDNVISQLDTKIFNEDLVFANDLSLTLKDEFRSRFKNVTKIMDCVQCDRCRLWGKIQTTGYATALKILFEINDADEFTKQHIVGKLTKYELIALLQTFGRLSESIESVNMFEKMYGKRL
notes: Ero1, ER-resident flavoenzyme of yeast, residues 56-424; FAD cofactor; The ITC methods name only 'Ero1'; also called recombinant Ero1; source: E. coli Origami B(DE3), purified (HiTrap Ni2+, amylose, TEV cleavage, Ni2+ flow-through)
In the case of B2, the Kd in assay [2] was roughly 150 µM.

The record behind these values is PMC6242907, “Molecular basis of maintaining an oxidizing environment under anaerobiosis by soluble fumarate reductase” (Nature Communications, 2018).
